Source: publication doi:10.1101/2021.07.05.451181 (bioRxiv, 2021)

Molecular target: the molecule itself
Assay: single-molecule photobleaching step counting

B1: GFP-TAX-4 (cyclic nucleotide-gated TAX-4 ion channel with EGFP fused to the cytosolic N-terminus) (natural protein, C. elegans, UniProt Q03611 1-733, looked up)
chain: MSTAEPAPDPTNPSTSGLAPTTNGIGSPPPTASAATKFSILTKFLRRKNQVHTTTAQQNEFMQKYMPNGNSNAVQPAATGGQPASSDGGSAIEVPPPKESYAVRIRKYLANYTQDPSTDNFYYWTCVVTVAYIYNLLFVIARQVFNDLIGPSSQSLCRFYNGTLNSTTQVECTYNMLTNMKEMPTYSQYPDLGWSKYWHFRMLWVFFDLLMDCVYLIDTFLNYRMGYMDQGLVVREAEKVTKAYWQSKQYRIDGISLIPLDYILGWPIPYINWRGLPILRLNRLIRYKRVRNCLERTETRSSMPNAFRVVVVVWYIVIIIHWNACLYFWISEWIGLGTDAWVYGHLNKQSLPDDITDTLLRRYVYSFYWSTLILTTIGEVPSPVRNIEYAFVTLDLMCGVLIFATIVGNVGSMISNMSAARTEFQNKMDGIKQYMELRKVSKQLEIRVIKWFDYLWTNKQSLSDQQVLKVLPDKLQAEIAMQVHFETLRKVRIFQDCEAGLLAELVLKLQLQVFSPGDFICKKGDIGREMYIVKRGRLQVVDDDGKKVFVTLQEGSVFGELSILNIAGSKNGNRRTANVRSVGYTDLFVLSKTDLWNALREYPDARKLLLAKGREILKKDNLLDENAPEEQKTVEEIAEHLNNAVKVLQTRMARLIVEHSSTEGKLMKRIEMLEKHLSRYKALARRQKTMHGVSIDGGDISTDGVDERVRPPRLRQTKTIDLPTGTESESLLK
- stoichiometry N: 4
